# Source: the supplement of paper PMC11246515
# ± gives the standard deviation of the averaged measurements.
# Test: total protein half-life in vivo (active degradation + dilution); higher = more stable protein
# [1] = E. coli NCM3722 delta-clpP delta-lon delta-hslV, growth: N-lim chemostat, doubling time 6 h
# [2] = E. coli NCM3722 delta-clpP, growth: N-lim chemostat, doubling time 6 h
# [3] = E. coli NCM3722 delta-hslV, growth: N-lim chemostat, doubling time 6 h
# [4] = E. coli NCM3722 delta-lon, growth: N-lim chemostat, doubling time 6 h
# [5] = E. coli NCM3722 delta-smpB, growth: N-lim chemostat, doubling time 6 h
# [6] = wild type E. coli NCM3722, growth: C-lim chemostat, doubling time 3 h
# [7] = wild type E. coli NCM3722, growth: C-lim chemostat, doubling time 6 h
# [8] = wild type E. coli NCM3722, growth: C-lim chemostat, doubling time 12 h
# [9] = wild type E. coli NCM3722, growth: N-lim chemostat, doubling time 6 h
# [10] = wild type E. coli NCM3722, growth: N-lim chemostat, doubling time 12 h
# [11] = wild type E. coli NCM3722, growth: P-lim chemostat, doubling time 6 h
# [12] = wild type E. coli NCM3722, growth: P-lim chemostat, doubling time 12 h
Sequence,total protein half-life in vivo [1],total protein half-life in vivo [2],total protein half-life in vivo [3],total protein half-life in vivo [4],total protein half-life in vivo [5],total protein half-life in vivo [6],total protein half-life in vivo [7],total protein half-life in vivo [8],total protein half-life in vivo [9],total protein half-life in vivo [10],total protein half-life in vivo [11],total protein half-life in vivo [12]
MNILLAFKAEPDAGMLAEKEWQAAAQGKSGPDISLLRSLLGADEQAAAALLLAQRKNGTPMSLTALSMGDERALHWLRYLMALGFEEAVLLETAADLRFAPEFVARHIAEWQHQNPLDLIITGCQSSEGQNGQTPFLLAEMLGWPCFTQVERFTLDALFITLEQRTEHGLRCCRVRLPAVIAVRQCGEVALPVPGMRQRMAAGKAEIIRKTVAAEMPAMQCLQLARAEQRRGATLIDGQTVAEKAQKLWQDYLRQRMQP,5.73 ± 0.78 h,,,,,,,,,,,
MSCPVIELTQQLIRRPSLSPDDAGCQALLIERLQAIGFTVERMDFADTQNFWAWRGQGETLAFAGHTDVVPPGDADRWINPPFEPTIRDGMLFGRGAADMKGSLAAMVVAAERFVAQHPNHTGRLAFLITSDEEASAHNGTVKVVEALMARNERLDYCLVGEPSSIEVVGDVVKNGRRGSLTCNLTIHGVQGHVAYPHLADNPVHRAAPFLNELVAIEWDQGNEFFPATSMQIANIQAGTGSNNVIPGELFVQFNFRFSTELTDEMIKAQVLALLEKHQLRYTVDWWLSGQPFLTARGKLVDAVVNAVEHYNEIKPQLLTTGGTSDGRFIARMGAQVVELGPVNATIHKINECVNAADLQLLARMYQRIMEQLVA [P0AED7],4.94 ± 0.53 h,4.52 ± 0.093 h,4.42 ± 0.081 h,5.76 ± 1.5 h,4.4 ± 0.41 h,3.05 ± 0.25 h,5.7 ± 0.46 h,9.7 ± 0.28 h,4.418 ± 0.036 h,7.37 ± 0.72 h,5.6 ± 0.48 h,11 ± 1.8 h
MDSHTLIQALIYLGSAALIVPIAVRLGLGSVLGYLIAGCIIGPWGLRLVTDAESILHFAEIGVVLMLFIIGLELDPQRLWKLRAAVFGCGALQMVICGGLLGLFCMLLGLRWQVAELIGMTLALSSTAIAMQAMNERNLMVTQMGRSAFAVLLFQDIAAIPLVAMIPLLATSSASTTMGAFALSALKVAGALVLVVLLGRYVTRPALRFVARSGLREVFSAVALFLVFGFGLLLEEVGLSMAMGAFLAGVLLASSEYRHALESDIEPFKGLLLGLFFIGVGMSIDFGTLLENPLRIVILLLGFLIIKIAMLWLIARPLQVPNKQRRWFAVLLGQGSEFAFVVFGAAQMANVLEPEWAKSLTLAVALSMAATPILLVILNRLEQSSTEEAREADEIDEEQPRVIIAGFGRFGQITGRLLLSSGVKMVVLDHDPDHIETLRKFGMKVFYGDATRMDLLESAGAAKAEVLINAIDDPQTNLQLTEMVKEHFPHLQIIARARDVDHYIRLRQAGVEKPERETFEGALKTGRLALESLGLGPYEARERADVFRRFNIQMVEEMAMVENDTKARAAVYKRTSAMLSEIITEDREHLSLIQRHGWQGTEEGKHTGNMADEPETKPSS,,7.26 ± 1 h,6.68 ± 1.4 h,6.07 ± 0.42 h,6.12 ± 0.22 h,3.62 ± 0.14 h,6.07 ± 0.45 h,13.1 ± 0.2 h,6.452 ± 0.033 h,11.9 ± 1.1 h,6.64 ± 0.37 h,12.2 ± 1.2 h
MTWEYALIGLVVGIIIGAVAMRFGNRKLRQQQALQYELEKNKAELDEYREELVSHFARSAELLDTMAHDYRQLYQHMAKSSSSLLPELSAEANPFRNRLAESEASNDQAPVQMPRDYSEGASGLLRTGAKRD [P0ADW3],6.13 ± 0.15 h,5.58 ± 0.45 h,5.63 ± 0.57 h,5.76 ± 0.067 h,5.84 ± 0.37 h,3.33 ± 0.31 h,6.4 ± 0.23 h,12.4 ± 2.7 h,5.78 ± 0.092 h,11.7 ± 0.66 h,5.43 ± 0.44 h,12.5 ± 1.1 h
MSAIAPGMILIAYLCGSISSAILVCRLCGLPDPRTSGSGNPGATNVLRIGGKGAAVAVLIFDVLKGMLPVWGAYELGVSPFWLGLIAIAACLGHIWPVFFGFKGGKGVATAFGAIAPIGWDLTGVMAGTWLLTVLLSGYSSLGAIVSALIAPFYVWWFKPQFTFPVSMLSCLILLRHHDNIQRLWRRQETKIWTKFKRKREKDPE,6.82 h,6.64 h,> 8 h,7.06 h,5.72 h,,6.29 h,,6.93 ± 0.78 h,9.94 h,6.01 ± 0.4 h,11 h
MTKKLHIKTWGCQMNEYDSSKMADLLDATHGYQLTDVAEEADVLLLNTCSIREKAQEKVFHQLGRWKLLKEKNPDLIIGVGGCVASQEGEHIRQRAHYVDIIFGPQTLHRLPEMINSVRGDRSPVVDISFPEIEKFDRLPEPRAEGPTAFVSIMEGCNKYCTYCVVPYTRGEEVSRPSDDILFEIAQLAAQGVREVNLLGQNVNAWRGENYDGTTGSFADLLRLVAAIDGIDRIRFTTSHPIEFTDDIIEVYRDTPELVSFLHLPVQSGSDRILNLMGRTHTALEYKAIIRKLRAARPDIQISSDFIVGFPGETTEDFEKTMKLIADVNFDMSYSFIFSARPGTPAADMVDDVPEEEKKQRLYILQERINQQAMAWSRRMLGTTQRILVEGTSRKSIMELSGRTENNRVVNFEGTPDMIGKFVDVEITDVYPNSLRGKVVRTEDEMGLRVAETPESVIARTRKENDLGVGYYQP [P0AEI1],4.82 ± 0.13 h,2.04 ± 0.24 h,1.57 ± 0.14 h,2.12 ± 0.29 h,1.54 ± 0.098 h,1.5 ± 0.018 h,2.18 ± 0.19 h,2.62 ± 0.22 h,1.632 ± 0.015 h,2.12 ± 0.027 h,1.97 ± 0.35 h,3.75 ± 0.39 h
MDNLDVICIGAAIVDIPLQPVSKNIFDVDSYPLERIAMTTGGDAINEATIISRLGHRTALMSRIGKDAAGQFILDHCRKENIDIQSLKQDVSIDTSINVGLVTEDGERTFVTNRNGSLWKLNIDDVDFARFSQAKLLSLASIFNSPLLDGKALTEIFTQAKARQMIICADMIKPRLNETLDDICEALSYVDYLFPNFAEAKLLTGKETLDEIADCFLACGVKTVVIKTGKDGCFIKRGDMTMKVPAVAGITAIDTIGAGDNFASGFIAALLEGKNLRECARFANATAAISVLSVGATTGVKNRKLVEQLLEEYEG,4.78 h,4.22 h,5.06 ± 0.82 h,4.44 ± 0.44 h,4.11 ± 0.23 h,3.18 ± 0.49 h,5.08 ± 0.33 h,10.1 ± 0.27 h,4.39 ± 0.065 h,7.58 ± 0.17 h,3.97 h,7.77 ± 1.9 h
MKKGTVLNSDISSVISRLGHTDTLVVCDAGLPIPKSTTRIDMALTQGVPSFMQVLGVVTNEMQVEAAIIAEEIKHHNPQLHETLLTHLEQLQKHQGNTIEIRYTTHEQFKQQTAESQAVIRSGECSPYANIILCAGVTF,5.99 ± 0.1 h,5.79 ± 2.1 h,4.85 h,,4.78 ± 0.7 h,3.49 ± 0.2 h,6.69 ± 1.8 h,10.6 ± 0.4 h,4.95 ± 0.51 h,6.08 h,6.43 ± 0.15 h,13.3 ± 2.3 h
